Experimental data published in PMC9358775 (Nature structural & molecular biology, 2022).

What was measured:
[1] = biological target: F-actin (skeletal muscle actin, polymerised) ( (rabbit or chicken skeletal …, UniProt P68135 1-377)); assay: fluorescence polarisation
[2] = biological target: T1, actin-binding domain 1 of human plastin 2 (human, UniProt P13796 120-375); assay: fluorescence polarisation
T1 sequence (looked up): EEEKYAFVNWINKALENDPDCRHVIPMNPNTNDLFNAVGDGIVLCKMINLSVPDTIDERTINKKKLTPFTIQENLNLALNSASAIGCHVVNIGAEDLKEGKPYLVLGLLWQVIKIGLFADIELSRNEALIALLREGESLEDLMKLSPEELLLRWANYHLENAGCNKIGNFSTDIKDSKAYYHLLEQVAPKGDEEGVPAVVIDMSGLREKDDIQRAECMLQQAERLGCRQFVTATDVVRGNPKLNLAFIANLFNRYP

B1: actin-binding domain 2 of human plastin 2, unlabeled (domain or fragment)
chain: TREERTFRNWMNSLGVNPRVNHLYSDLSDALVIFQLYEKIKVPVDWNRVNKPPYPKLGGNMKKLENCNYAVELGKNQAKFSLVGIGGQDLNEGNRTLTLALIWQLMRRYTLNILEEIGGGQKVNDDIIVNWVNETLREAKKSSSISSFKDPKISTSLPVLDLIDAIQPGSINYDLLKTENLNDDEKLNNAKYAISMARKIGARVYALPEDLVEVNPKMVMTVFACLMGKGMKRV
[1]
  Kd: ~4 nM

B2: fluorescein-maleimide-labeled actin-binding domain 2 of human plastin 2 (domain or fragment, UniProt P13796 394-627, looked up)
chain: TREERTFRNWMNSLGVNPRVNHLYSDLSDALVIFQLYEKIKVPVDWNRVNKPPYPKLGGNMKKLENCNYAVELGKNQAKFSLVGIGGQDLNEGNRTLTLALIWQLMRRYTLNILEEIGGGQKVNDDIIVNWVNETLREAKKSSSISSFKDPKISTSLPVLDLIDAIQPGSINYDLLKTENLNDDEKLNNAKYAISMARKIGARVYALPEDLVEVNPKMVMTVFACLMGKGMKRV
modifications: labeled with fluorescein-5-maleimide (FM); labeled residue not stated
[2]
  Kd: 11.4 nM
